Assay [1] addresses T1, human CD3ε/δ (ACRO systems, CDD-H52W1) (human, UniProt P07766 23-126; P04234 22-105).
T1 construct: bought recombinant heterodimer; also called human CD3 epsilon/delta; Human CD3ε/CD3δ
Kind of assay: serum-stability ELISA, Day 1 vs Day 0.
Description: (§1) The samples to be tested were centrifuged at 4° C. at 12000 rpm for 30 minutes to remove the precipitate. 200 μl of each sample to be tested (0.5 mg/ml) was collected in a 1.5 ml Eppendorf tube. An equal volume of human serum (GEMINI, H2OYOOK) was added, mixed thoroughly, and the mixture was incubated in a 37° C. constant temperature CO₂ incubator. For a total of 10 days, 40 μl samples was aspirated every day and stored at −20° C.
(§2) Enzyme-linked immunosorbent assay (ELISA) was used to test the bispecific antibodies' binding to human CEA and human CD3 epsilon/delta antigen. The steps are as follows: the antigen human CD3ε/δ (ACRO systems, CDD-H52W1) and the recombinant tumor antigen human CEA (CEACAM-5/CD66e, ACRO systems, CE5-H5226) were diluted to 1 μg/ml with PBS, and then added to the 96-well plate at 100 μl per well. The wells were coated overnight at 4° C. After washing 3 times with 0.05% PBST, 200 μl 5% skimmed milk powder was added to each well and incubated at 37° C. for 2 h. After washing 3 times with 0.05% PBST, 100 μl primary antibody sample (10 μg/ml) was added to each well, and incubated at 37° C. for 2 h. After washing 3 times with 0.05% PBST, 100 μl (1:6000) diluted secondary antibody goat anti-human Fc-HRP (sigma, A2170) was added to each well, incubated at room temperature for 1 h. After washing 8 times with 0.05% PBST, 50 μl TMB color developing solution was added to each well, and incubated at room temperature for 10-15 min. 50 μl 1 mM HCl was added to each well to stop the color development. 450 nm Absorbance (OD) was read.
(§3) The binding of antibodies to antigen was calculated according to the following formula: Binding (%)=[(ODdayn−ODb)/(ODday0−ODb)]×100%. ODdayn: experimental well (the protein was stored in the serum for n days); ODday0: control well (the protein was not stored in the serum); ODb: blank well (no primary antibody added).

The target of assay [2] is T1, human CD3ε/δ (ACRO systems, CDD-H52W1). Description: serum-stability ELISA, Day 2 vs Day 0.
Description: as §1, §2, §3
Assay [3] has the same target. Description: serum-stability ELISA, Day 5 vs Day 0.
Description: as §1, §2, §3
Assay [4] has the same target. Kind of assay: serum-stability ELISA, Day 6 vs Day 0.
Description: as §1, §2, §3
For assay [5] the target is unchanged. Kind of assay: serum-stability ELISA, Day 7 vs Day 0.
Description: as §1, §2, §3
The target is the same in assay [6]. Description: serum-stability ELISA, Day 9 vs Day 0.
Description: as §1, §2, §3
The target is the same in assay [7]. Description: serum-stability ELISA, Day 10 vs Day 0.
Description: as §1, §2, §3
Assay [8] has the same target. Description: serum-stability ELISA, Day 0 (reference).

B1: 208 (Fab (Heavy)-Knob+Fab (Light)-Hole-CEA) (bispecific antibody, human IgG4 S228P, kappa, F234A L235A)
heavy: EVKLLESGGGLVQPKGSLKLSCAASGFTFNTYAMNWVRQAPGKGLEWVARIRSKYNNYATYYADSVKDRFTISRDDSQSILYLQMNNLKTEDTAMYYCVRHGNFGNSYVSWFAYWGQGTLVTVSSASTKGPSVFPLAPCSRSTSESTAALGCLVKDYFPEPVTVSWNSGALTSGVHTFPAVLQSSGLYSLSSVVTVPSSSLGTKTYTCNVDHKPSNTKVDKRVESKYGPPCPPCPAPEAAGGPSVFLFPPKPKDTLMISRTPEVTCVVVDVSQEDPEVQFNWYVDGVEVHNAKTKPREEQFNSTYRVVSVLTVLHQDWLNGKEYKCKVSNKGLPSSIEKTISKAKGQPREPQVYTLPPCQEEMTKNQVSLWCLVKGFYPSDIAVEWESNGQPENNYKTTPPVLDSDGSFFLYSRLTVDKSRWQEGNVFSCSVMHEALHNHYTQKSLSLSL
light: QAVVTQESALTTSPGETVTLTCRSSTGAVTTSNYANWVQEKPDHLFTGLIGGTNKRAPGVPARFSGSLIGDKAALTITGAQTEDEAIYFCALWYSNLWVFGGGTKVEIKRTVAAPSVFIFPPSDEQLKSGTASVVCLLNNFYPREAKVQWKVDNALQSGNSQESVTEQDSKDSTYSLSSTLTLSKADYEKHKVYACEVTHQGLSSPVTKSFNRGECESKYGPPCPPCPAPEAAGGPSVFLFPPKPKDTLMISRTPEVTCVVVDVSQEDPEVQFNWYVDGVEVHNAKTKPREEQFNSTYRVVSVLTVLHQDWLNGKEYKCKVSNKGLPSSIEKTISKAKGQPREPQVCTLPPSQEEMTKNQVSLSCAVKGFYPSDIAVEWESNGQPENNYKTTPPVLDSDGSFFLVSRLTVDKSRWQEGNVFSCSVMHEALHNRFTQKSLSLSLGGGGSGGGGSEVQLVESGGGFVQAGESLTLSCTSSTLTFTPYRMAWYRQAPGKQRDLVADISSGDGRTTNYADFAKGRFTISRDNIKNTVFLRMTNLKPEDTAVYYCNTFVSFVGIARSWGQGTQVTVSS
notes: two-chain format: VL-CL fused to hole Fc and VHH
Consider B1, for which the Binding % turned out to be 95.7% in assay [1]; 96.1% in assay [2]; 100% in assay [3]; 97.4% in assay [4]; 95.9% in assay [5]; 98.8% in assay [6]. In addition, the Binding % in assay [7] was found to be 95.7%; in assay [8], 100%.

B2: 209 (Fab (Light)-Knob-CEA+Fab (Heavy)-Hole) (bispecific antibody, human IgG4 S228P, kappa, F234A L235A)
light: QAVVTQESALTTSPGETVTLTCRSSTGAVTTSNYANWVQEKPDHLFTGLIGGTNKRAPGVPARFSGSLIGDKAALTITGAQTEDEAIYFCALWYSNLWVFGGGTKVEIKRTVAAPSVFIFPPSDEQLKSGTASVVCLLNNFYPREAKVQWKVDNALQSGNSQESVTEQDSKDSTYSLSSTLTLSKADYEKHKVYACEVTHQGLSSPVTKSFNRGECESKYGPPCPPCPAPEAAGGPSVFLFPPKPKDTLMISRTPEVTCVVVDVSQEDPEVQFNWYVDGVEVHNAKTKPREEQFNSTYRVVSVLTVLHQDWLNGKEYKCKVSNKGLPSSIEKTISKAKGQPREPQVYTLPPCQEEMTKNQVSLWCLVKGFYPSDIAVEWESNGQPENNYKTTPPVLDSDGSFFLYSRLTVDKSRWQEGNVFSCSVMHEALHNHYTQKSLSLSLGGGGSGGGGSEVQLVESGGGFVQAGESLTLSCTSSTLTFTPYRMAWYRQAPGKQRDLVADISSGDGRTTNYADFAKGRFTISRDNIKNTVFLRMTNLKPEDTAVYYCNTFVSFVGIARSWGQGTQVTVSS
heavy: EVKLLESGGGLVQPKGSLKLSCAASGFTFNTYAMNWVRQAPGKGLEWVARIRSKYNNYATYYADSVKDRFTISRDDSQSILYLQMNNLKTEDTAMYYCVRHGNFGNSYVSWFAYWGQGTLVTVSSASTKGPSVFPLAPCSRSTSESTAALGCLVKDYFPEPVTVSWNSGALTSGVHTFPAVLQSSGLYSLSSVVTVPSSSLGTKTYTCNVDHKPSNTKVDKRVESKYGPPCPPCPAPEAAGGPSVFLFPPKPKDTLMISRTPEVTCVVVDVSQEDPEVQFNWYVDGVEVHNAKTKPREEQFNSTYRVVSVLTVLHQDWLNGKEYKCKVSNKGLPSSIEKTISKAKGQPREPQVCTLPPSQEEMTKNQVSLSCAVKGFYPSDIAVEWESNGQPENNYKTTPPVLDSDGSFFLVSRLTVDKSRWQEGNVFSCSVMHEALHNRFTQKSLSLSL
notes: two-chain format: VL-CL fused to knob Fc and VHH
Regarding B2, the Binding % in assay [1] came to 102%; in assay [2], 103%; in assay [3], 108%; in assay [4], 105%; in assay [5], 109%; in assay [6], 108%. Besides, the results for the Binding % in assay [7] and in assay [8] were 107% and 100%, respectively.

B3: 205 (CEA-Fab-Knob-+Hole) (bispecific antibody, human IgG4 S228P, kappa, F234A L235A)
heavy: EVQLVESGGGFVQAGESLTLSCTSSTLTFTPYRMAWYRQAPGKQRDLVADISSGDGRTTNYADFAKGRFTISRDNIKNTVFLRMTNLKPEDTAVYYCNTFVSFVGIARSWGQGTQVTVSSGGGGSGGGGSEVKLLESGGGLVQPKGSLKLSCAASGFTFNTYAMNWVRQAPGKGLEWVARIRSKYNNYATYYADSVKDRFTISRDDSQSILYLQMNNLKTEDTAMYYCVRHGNFGNSYVSWFAYWGQGTLVTVSSASTKGPSVFPLAPCSRSTSESTAALGCLVKDYFPEPVTVSWNSGALTSGVHTFPAVLQSSGLYSLSSVVTVPSSSLGTKTYTCNVDHKPSNTKVDKRVESKYGPPCPPCPAPEAAGGPSVFLFPPKPKDTLMISRTPEVTCVVVDVSQEDPEVQFNWYVDGVEVHNAKTKPREEQFNSTYRVVSVLTVLHQDWLNGKEYKCKVSNKGLPSSIEKTISKAKGQPREPQVYTLPPCQEEMTKNQVSLWCLVKGFYPSDIAVEWESNGQPENNYKTTPPVLDSDGSFFLYSRLTVDKSRWQEGNVFSCSVMHEALHNHYTQKSLSLSL
chain: ESKYGPPCPPCPAPEAAGGPSVFLFPPKPKDTLMISRTPEVTCVVVDVSQEDPEVQFNWYVDGVEVHNAKTKPREEQFNSTYRVVSVLTVLHQDWLNGKEYKCKVSNKGLPSSIEKTISKAKGQPREPQVCTLPPSQEEMTKNQVSLSCAVKGFYPSDIAVEWESNGQPENNYKTTPPVLDSDGSFFLVSRLTVDKSRWQEGNVFSCSVMHEALHNRFTQKSLSLSL
light: QAVVTQESALTTSPGETVTLTCRSSTGAVTTSNYANWVQEKPDHLFTGLIGGTNKRAPGVPARFSGSLIGDKAALTITGAQTEDEAIYFCALWYSNLWVFGGGTKVEIKRTVAAPSVFIFPPSDEQLKSGTASVVCLLNNFYPREAKVQWKVDNALQSGNSQESVTEQDSKDSTYSLSSTLTLSKADYEKHKVYACEVTHQGLSSPVTKSFNRGEC
notes: VHH fused before VH of the heavy chain
Take B3: the Binding % in assay [1] was determined as 96.5%; in assay [2], 99.3%; in assay [3], 117%; in assay [4] it was 100%; in assay [5], 105%; in assay [6], 105%. The Binding % in assay [7] is 105%; in assay [8] it was 100%.

B4: 206 (Knob+CEA-Fab-Hole) (bispecific antibody, human IgG4 S228P, kappa, F234A L235A)
chain: ESKYGPPCPPCPAPEAAGGPSVFLFPPKPKDTLMISRTPEVTCVVVDVSQEDPEVQFNWYVDGVEVHNAKTKPREEQFNSTYRVVSVLTVLHQDWLNGKEYKCKVSNKGLPSSIEKTISKAKGQPREPQVYTLPPCQEEMTKNQVSLWCLVKGFYPSDIAVEWESNGQPENNYKTTPPVLDSDGSFFLYSRLTVDKSRWQEGNVFSCSVMHEALHNHYTQKSLSLSL
heavy: EVQLVESGGGFVQAGESLTLSCTSSTLTFTPYRMAWYRQAPGKQRDLVADISSGDGRTTNYADFAKGRFTISRDNIKNTVFLRMTNLKPEDTAVYYCNTFVSFVGIARSWGQGTQVTVSSGGGGSGGGGSEVKLLESGGGLVQPKGSLKLSCAASGFTFNTYAMNWVRQAPGKGLEWVARIRSKYNNYATYYADSVKDRFTISRDDSQSILYLQMNNLKTEDTAMYYCVRHGNFGNSYVSWFAYWGQGTLVTVSSASTKGPSVFPLAPCSRSTSESTAALGCLVKDYFPEPVTVSWNSGALTSGVHTFPAVLQSSGLYSLSSVVTVPSSSLGTKTYTCNVDHKPSNTKVDKRVESKYGPPCPPCPAPEAAGGPSVFLFPPKPKDTLMISRTPEVTCVVVDVSQEDPEVQFNWYVDGVEVHNAKTKPREEQFNSTYRVVSVLTVLHQDWLNGKEYKCKVSNKGLPSSIEKTISKAKGQPREPQVCTLPPSQEEMTKNQVSLSCAVKGFYPSDIAVEWESNGQPENNYKTTPPVLDSDGSFFLVSRLTVDKSRWQEGNVFSCSVMHEALHNRFTQKSLSLSL
light: QAVVTQESALTTSPGETVTLTCRSSTGAVTTSNYANWVQEKPDHLFTGLIGGTNKRAPGVPARFSGSLIGDKAALTITGAQTEDEAIYFCALWYSNLWVFGGGTKVEIKRTVAAPSVFIFPPSDEQLKSGTASVVCLLNNFYPREAKVQWKVDNALQSGNSQESVTEQDSKDSTYSLSSTLTLSKADYEKHKVYACEVTHQGLSSPVTKSFNRGEC
notes: as for B3
Consider B4, for which the Binding % is 95.1% in assay [1]; 95.1% in assay [2]; 102% in assay [3]; 99.3% in assay [4]; 100% in assay [5]; 95.6% in assay [6]. The Binding % came to 91.6% in assay [7] and 100% in assay [8].
